Sequences and labels used below:
B1: scFv 1-451 (scFv, V domains shown)
VH: QVQLVQSGGGLVQPGRSLRLSCAASGFIFDDYAMHWVRQAPGKGLEWVSGISWNSGSIGYADSVKGRFTISRDNAKNSLYLQMNSLRAEDTALYYCAKDPNSLYRSGSFDYWGQGTLVTVSS
VL: not shown
B2: scFv z1-201 (scFv, V domains shown)
VH: QVQLVQFGGGLVQPGRSLRLSCAASGFIFDDYAMHWVRQAPGKGLEWVSGISWNSGSIGYADSVKGRFTISRDNAKNSLYLQMNSLRAEDTALYYCAKDPNSLYRSGSFDYWGQGTLVTVSS
VL: not shown
B3: scFv 1-440 (scFv, V domains shown)
VH: EVQLLESGGGLVQPGRSLRLSCAASGFIFDDYAMHWVRQAPGKGLEWVSGISWNSGSIGYADSVKGRFTISRDNAKNSLYLQMNSLRAEDTALYYCAKDPNSLYRSGSFDYWGQGTLVTVSS
VL: ELQMTQSPSSLSASVGDRVTITCRASQSISSYLNWYQQKPGKAPKLLIYAASSLESGVPSRFSGSGSGTDFTLTISSLQPEDFASYYCQQSYSTPFTFGPGTKVDIK
B4: scFv 1-423 (scFv, V domains shown)
VH: QVQLVQSGAEVKRPGSSVKVSCKASGGTFSSYTISWVRQAPGQGLEWMGSIIPVLDVTSYAQQFQGRVTITADKSTKTAYMDLSSLTFEDTALYFCSIGRYTYGHFDTWGQGTQVTVSS
VL: ELVLTQPPSVSVAPGKTARVTCGGGNIGDKAVHWYQQRPGQAPVLVVFGDSARPSGIPERFSGSNSGNTATLTISRVEVGDEADYYCQVWDSNSDHQVFGGGTKLTVL
B5: scFv 2-206 (scFv, V domains shown)
VH: QVQLVQSGADVKKPGSSVKVSCKASGGTFSSYTINWVRQAPGQGLEWMGRIVPILDIANYAQKFQGRVTITADKSTSTAYMELSSLTSEDTAVYYCARDRGYDNKYGAYWGQGTLVTVSS
VL: ELVLTQPPSVSVAPGQTARITCGGNNIGSKNVHWYQQKPGQAPVLVVYDDSDRPSGIPERFSGSNSGNTATLTISRVEAGDEADYYCQVWDSSSDHWVFGGGTKVTVL
B6: scFv 1-441 (scFv, V domains shown)
VH: QVQLQESGGGVVQPGRSLRLSCTDSGFTFSRYAMHWVRQAPGKGLEWVAGISYDGSYEYYADSVKGRFTISRDNSKNTLYVQMNSLRGEDTAVYYCARDLRGGEDYWGQGTLVTVSS
VL: ELVVTQPPSVSAAPGQKVTISCSGSTSNIGNNYVSWYQQFPGTAPKLLIYDNNKRPSGIPDRFSGSKSGTSATLGITGLQTGDEADYYCGTWDSSLSAVVFGGGTKVTVL
B7: scFv 1-415 (scFv, V domains shown)
VH: QVQLQESGGGVVQPGRSLRLSCAASGFTFRNYAMHWVRQAPGKGLEWVAVISYDGGKEYYADSVKGRFTISRDNSKNTLYLQMNSLRAEDTAVYYCARDTFSYYDFWRAFDYWGQGTLVTVSS
VL: ELELTQPPSVSGSPGQSITISCTGTSSDVGGYNYVSWYQQHPGKAPKLMIYEVSNRPSGVSNRFSGSKSGNTASLTISGLQAEDEADYYCSSYTSSSTVVFGGGTKLTVL
B8: scFv 1-437 (scFv, V domains shown)
VH: QVQLVQSGGGLVKPGGSLRLSCAASGFIFSNYIMNWVRQAPGKGLEWVSSISSSGSYIYYADSVKGRFTISRDNAKNSMYLQMNSLRGEDTAVYYCAAAYDFWSGYYFWGQGTTVTVSS
VL: ELALTQPPSVSGSPGQSITISCTGTSSDVGGYNYVSWYQQHPGKAPKLMIYEVSNRPSGVSNRFSGSKSGNTASLTISGLQAEDEADYYCSSYTSSTPYVFGTGTKVTVL
B9: scFv 1-401 (scFv, V domains shown)
VH: QVQLVQSGAELKKPGSSVKVSCKASGGAFTMYTINWVRQAPGRGLEWMGRIIPILGITDYAQKFQGRGTITADKSTSTAYLELSGLTSEDTAVYYCAREFSGGNYFDFWGQGTLVTVSS
VL: ELVLTQPPSVSVAPGKTARMTCGGNNIGGYSVHWYQQKPGQAPVLVVYHDSDRPSGIPERFTGSNSGNMATLTISRVEAGDEADYYCQVWDSSNDHSVFGGGTELTVL
B10: scFv 1-458 (scFv, V domains shown)
VH: QVQLVQSGAELKKPGSSVKVSCKASGGAFTMYTINWVRQAPGRGLEWMGRIIPILGITDYAQKFQGRGTITADKSTSTAYLELSGLTSEDTAVYYCAREFSGGNYFDFWGQGTLVTVSS
VL: ELVLTQPPSVSVAPGKTARIPCGGNNIGGKSVHWYQQRPGQAPVLVVYSDSVRPSGIPERFSGSNSGNTATLTISRVEAGDEADYYCQVWDRSSDHVVFGGGTQLTVL
B11: scFv 1-450 (scFv, V domains shown)
VH: QVQLVQSGAEVKKPGSSMNVSCKASGGTFSRHTINWVRQAPGQGLEWMGSIIPILGITNYAQNFQGRLTFSADKSTNTAYVELSGLRSEDTAVYYCASGDYYYDMAVWGQGTTVAVTS
VL: ELVLTQPPSVSVSPGQTARITCSGDALPKQYAYWYQQKPGQAPVLVIYKDSERPSGIPERFSGSSSGTTATLTISGVQAEDEADYYCQSAYSSGTVVFGGGTELTVL
B12: scFv 1-413 (scFv, V domains shown)
VH: QVQLVQSGSEVKKPGSSVKVSCKASGGTFSSHTLSWVRQAPGQGLEWMGEIIPILDRVKYSQNFQGRVTITADKSTNTTYMELSSVRSEDTAVYYCVSNGWSNFDFWGQGTLVTVSP
VL: ELELTQPPSVSVSPGQTARITCSGGALPKHYVYWYQQKPGQAPAVVIYKDTERPSGIPERFSGSTSGATVTLTISGVQADDDAVYFCQSVDSNDTSWIFGGGTKLTVL
B13: scFv 1-418 (scFv, V domains shown)
VH: QVQLVQSGSEVKKPGSSVKVSCKASGGTFSSHTVSWVRQAPGQGLEWMGEIIPILDRVNYAENFQGRVTITADKSTNTTYMDLSSLRSEDTAVYYCTSNGWSNFDFWGQGTLVTVSS
VL: ELVLTQPPSVSVSPGQTARITCSGGALPKHYAYWYQQKPGQAPAVVIYKDTERPSGIPERFSGSTSGTTVTLTISGVQADDDAVYFCQSVDSNDTSWIFGGGTKLTVL
B14: scFv 2-108 (scFv, V domains shown)
VH: EVQLVQSGGGLVQPGGSLRLSCAASGFTFSSYWMSWVRQAPGKGLEWVANIKQDGSEKHYVDSMKGRFTISRDNGKNSLYLQMNSLRAEDTAVYYCARSPGYYFDYWGQGTLVTVSS
VL: ELVVTQPPSASGTPGQRVTISCSGSSSNIGSNYVYWYEQLPGTAPKLLIYRNNQRPSGVPDRFSGSKSGTSASLAISGLRSEDEADYYCAAWDDSLRVYVFGTGTKLTVL
B15: scFv 1-410 (scFv, V domains shown)
VH: QVQLQESGGGVVQPGGSLRLSCAASGFTFDDYTMHWVRQAPGKGLEWVSLISWDGGSTYYADSVKGRFTISRDNSKNSLYLQMNSLRTEDTALYYCAKDNGYDILTDYLDSWGQGTLVTVSS
VL: ELQMTQSPSSLSASVGDRVTITCQASQDISNYLNWYQQKPGKAPKLLIYDASNLETGVPSRFSGSGSGTDFTFTISSLQPEDIATYYCQQYDNLPLTFGQGTRLEIK
B16: scFv 1-417 (scFv, V domains shown)
VH: QVQLVQSGTEVKKFGSSVKVSCKASGGSFSSYTISWVRQAPGQGLEWMGSFIPILERANYAQKFQGRVTFTADKTTSTAYMELGGLRSQDTAVYYCARDLGDFGDSWGQGTLVTVSS
VL: ELVLTQPPSVSVAPGKTARITCGGNNIGSKTVHWYQQKPGQAPVVVVSDDSERPSGIPERFSGSNSGNTATLTISRVEGGDEADYYCQVWDSSNDQVVFGGGTELTVL
B17: scFv 1-432 (scFv, V domains shown)
VH: QVQLVQSGAEVKKPLSSVKVSCKASGGTFNMYDINWVRQAPGQGLEWMGGIVPILGVTNYAQNFQGRLTITADKSTSTAYMELSSLRSEDTAVYYCARGVAAGWNAFDVWGQGTMVTVSA
VL: ELVLTQPPSMSVVPGQTARITCGGDNIGSKSVHWYQQKPGQAPVLVVNDDTERPSGIPDRFSGSNSGNTATLVISRVGAGDEADYFCQVWDSRSDHQVFGGGTKLTVL

Results on 17 molecules are retold here after patent US20190031771A1 (University of Pennsylvania, published 2019).

The assay concerns the target T1, human ADAMTS13 (human, UniProt Q76LX8 75-1427).
T1 construct: ELISA: full-length recombinant ADAMTS13 coated on plates (Technoclone); Activity assays: endogenous ADAMTS13 of normal human plasma; also called full-length human recombinant ADAMTS13; VWF-cleaving protease
T1 sequence (looked up): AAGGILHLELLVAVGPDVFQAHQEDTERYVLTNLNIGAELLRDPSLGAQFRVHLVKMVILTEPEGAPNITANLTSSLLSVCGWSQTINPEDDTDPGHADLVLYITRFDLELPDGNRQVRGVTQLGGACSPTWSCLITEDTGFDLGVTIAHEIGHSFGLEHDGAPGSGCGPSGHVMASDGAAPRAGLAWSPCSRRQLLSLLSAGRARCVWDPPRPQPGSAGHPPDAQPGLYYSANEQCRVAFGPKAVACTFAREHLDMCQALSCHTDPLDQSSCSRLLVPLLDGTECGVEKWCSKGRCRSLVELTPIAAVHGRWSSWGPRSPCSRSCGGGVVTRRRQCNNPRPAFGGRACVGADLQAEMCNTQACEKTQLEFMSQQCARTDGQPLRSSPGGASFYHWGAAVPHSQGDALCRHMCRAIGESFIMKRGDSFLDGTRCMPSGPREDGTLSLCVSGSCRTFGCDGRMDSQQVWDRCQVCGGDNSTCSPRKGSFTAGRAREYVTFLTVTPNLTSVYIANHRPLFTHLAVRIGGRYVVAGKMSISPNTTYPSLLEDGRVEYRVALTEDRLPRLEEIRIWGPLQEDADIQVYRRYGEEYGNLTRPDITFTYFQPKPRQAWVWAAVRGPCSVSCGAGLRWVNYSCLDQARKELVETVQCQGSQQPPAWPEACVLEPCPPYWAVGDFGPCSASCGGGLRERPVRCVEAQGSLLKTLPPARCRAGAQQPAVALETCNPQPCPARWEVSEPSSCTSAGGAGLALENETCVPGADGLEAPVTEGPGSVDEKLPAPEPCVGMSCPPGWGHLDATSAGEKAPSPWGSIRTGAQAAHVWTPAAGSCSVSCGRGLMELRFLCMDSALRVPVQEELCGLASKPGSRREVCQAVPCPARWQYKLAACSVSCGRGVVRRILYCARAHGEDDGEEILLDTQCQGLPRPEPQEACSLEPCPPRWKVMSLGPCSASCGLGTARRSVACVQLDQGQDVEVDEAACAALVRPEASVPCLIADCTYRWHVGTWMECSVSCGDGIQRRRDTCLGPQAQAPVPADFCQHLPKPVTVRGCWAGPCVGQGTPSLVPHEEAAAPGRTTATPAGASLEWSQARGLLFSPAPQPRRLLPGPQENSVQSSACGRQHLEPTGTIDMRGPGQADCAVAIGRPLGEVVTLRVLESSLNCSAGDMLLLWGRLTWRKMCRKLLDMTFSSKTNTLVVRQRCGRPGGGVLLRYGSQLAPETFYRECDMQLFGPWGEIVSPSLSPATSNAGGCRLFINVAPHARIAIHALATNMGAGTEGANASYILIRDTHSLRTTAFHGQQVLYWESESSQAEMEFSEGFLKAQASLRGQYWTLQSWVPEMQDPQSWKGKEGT
Kind of assay: phage ELISA on ADAMTS13-coated plates (positive: >10-fold absorbance above background). A general note: ELISA stands for enzyme-linked immunosorbent assay.
On to B1, for which the binding result is on record as “binds”.
Then B2, with “binds”; and B3, with “binds”; and B4, with “binds”.
In the case of B5 it was “binds”.
Then B6, with “binds”.
Take B7: the binding result is “binds”.
Take B8: the binding result is on record as “binds”.
In the case of B9 it was “binds”; in that of B10, “binds”; in that of B11, “binds”.
As to B12, the binding result is reported as “binds”.
In the case of B13 it was “binds”.
For B14, the binding result is on record as “binds”.
Then B15, with “binds”.
In the case of B16 it was “binds”; in that of B17, “binds”.
